Results from patent publication US20110263454A1, “Methods of Identifying Functional Characteristics of Promoters, Transcription Modifying Proteins and Transcription Modulating Agents” (Salk Institute for Biological Studies, priority 2008, published 2011).

B1: RORa: RAR-related Orphan Receptor α (NR1F1), cDNA driver (protein, UniProt P35398 1-523, looked up)
Nuclear receptor ROR-alpha: MESAPAAPDPAASEPGSSGADAAAGSRETPLNQESARKSEPPAPVRRQSYSSTSRGISVTKKTHTSQIEIIPCKICGDKSSGIHYGVITCEGCKGFFRRSQQSNATYSCPRQKNCLIDRTSRNRCQHCRLQKCLAVGMSRDAVKFGRMSKKQRDSLYAEVQKHRMQQQQRDHQQQPGEAEPLTPTYNISANGLTELHDDLSNYIDGHTPEGSKADSAVSSFYLDIQPSPDQSGLDINGIKPEPICDYTPASGFFPYCSFTNGETSPTVSMAELEHLAQNISKSHLETCQYLREELQQITWQTFLQEEIENYQNKQREVMWQLCAIKITEAIQYVVEFAKRIDGFMELCQNDQIVLLKAGSLEVVFIRMCRAFDSQNNTVYFDGKYASPDVFKSLGCEDFISFVFEFGKSLCSMHLTEDEIALFSAFVLMSADRSWLQEKVKIEKLQQKIQLALQHVLQKNHREDGILTKLICKVSTLRALCGRHTEKLMAFKAIYPDIVRLHFPPLYKELFTSEFEPAMQIDG
B2: HNF4a: Hepatocyte Nuclear Factor α (NR2A1), cDNA driver (protein, UniProt P41235 1-474, looked up)
Hepatocyte nuclear factor …: MRLSKTLVDMDMADYSAALDPAYTTLEFENVQVLTMGNDTSPSEGTNLNAPNSLGVSALCAICGDRATGKHYGASSCDGCKGFFRRSVRKNHMYSCRFSRQCVVDKDKRNQCRYCRLKKCFRAGMKKEAVQNERDRISTRRSSYEDSSLPSINALLQAEVLSRQITSPVSGINGDIRAKKIASIADVCESMKEQLLVLVEWAKYIPAFCELPLDDQVALLRAHAGEHLLLGATKRSMVFKDVLLLGNDYIVPRHCPELAEMSRVSIRILDELVLPFQELQIDDNEYAYLKAIIFFDPDAKGLSDPGKIKRLRSQVQVSLEDYINDRQYDSRGRFGELLLLLPTLQSITWQMIEQIQFIKLFGMAKIDNLLQEMLLGGSPSDAPHAHHPLHPHLMQEHMGTNVIVANTMPTHLSNGQMCEWPRPRGQAATPETPQPSPPGGSGSEPYKLLPGAVATIVKPLSAIPQPTITKQEVI
B3: RORg: RAR-related Orphan Receptor γ (NR1F3), cDNA driver (protein, UniProt P51449 1-518, looked up)
Nuclear receptor ROR-gamma: MDRAPQRQHRASRELLAAKKTHTSQIEVIPCKICGDKSSGIHYGVITCEGCKGFFRRSQRCNAAYSCTRQQNCPIDRTSRNRCQHCRLQKCLALGMSRDAVKFGRMSKKQRDSLHAEVQKQLQQRQQQQQEPVVKTPPAGAQGADTLTYTLGLPDGQLPLGSSPDLPEASACPPGLLKASGSGPSYSNNLAKAGLNGASCHLEYSPERGKAEGRESFYSTGSQLTPDRCGLRFEEHRHPGLGELGQGPDSYGSPSFRSTPEAPYASLTEIEHLVQSVCKSYRETCQLRLEDLLRQRSNIFSREEVTGYQRKSMWEMWERCAHHLTEAIQYVVEFAKRLSGFMELCQNDQIVLLKAGAMEVVLVRMCRAYNADNRTVFFEGKYGGMELFRALGCSELISSIFDFSHSLSALHFSEDEIALYTALVLINAHRPGLQEKRKVEQLQYNLELAFHHHLCKTHRQSILAKLPPKGKLRSLCSQHVERLQIFQHLHPIVVQAAFPPLYKELFSTETESPVGLSK
B4: LXRb: Liver X Receptor β (NR1H2), cDNA driver (protein, UniProt P55055 1-460, looked up)
Oxysterols receptor LXR-beta: MSSPTTSSLDTPLPGNGPPQPGAPSSSPTVKEEGPEPWPGGPDPDVPGTDEASSACSTDWVIPDPEEEPERKRKKGPAPKMLGHELCRVCGDKASGFHYNVLSCEGCKGFFRRSVVRGGARRYACRGGGTCQMDAFMRRKCQQCRLRKCKEAGMREQCVLSEEQIRKKKIRKQQQESQSQSQSPVGPQGSSSSASGPGASPGGSEAGSQGSGEGEGVQLTAAQELMIQQLVAAQLQCNKRSFSDQPKVTPWPLGADPQSRDARQQRFAHFTELAIISVQEIVDFAKQVPGFLQLGREDQIALLKASTIEIMLLETARRYNHETECITFLKDFTYSKDDFHRAGLQVEFINPIFEFSRAMRRLGLDDAEYALLIAINIFSADRPNVQEPGRVEALQQPYVEALLSYTRIKRPQDQLRFPRMLMKLVSLRTLSSVHSEQVFALRLQDKKLPPLLSEIWDVHE

Experiments:
RevErba promoter = test: NHR-promoter luciferase screen, RevErba (RVRa) promoter; assay type: cell-based; design: key to mRevErba promoter reporter activity / Normalized Luc. act., normalized to control: luciferase activity normalized to lacZ and to control (no NHR/ligand); details: for Luc. act., normalized to lacZ / Normalized Luc. act., normalized to control: HR component without or with ligand; for normalized Luc. act. on a logarithmic scale (column without head, Table 33): log10 of activity normalized to control; for mRevErba promoter reporter activity: transcription factor +/- ligand, control = 1.00
Method: Briefly, there were co-expressed 50 ng of each NHR/NHR homodimer or NHR/RXR heterodimer with 100 ng promoter/luciferase construct and 50 ng of LacZ (as a control for transfection efficiency) in CV-1 cells using Fugene HD (Roche) as a transfection reagent (alternatively or additionally, a CMV-YFP construct can be used as a transfection control). Each of the nuclear hormone receptors that were used in these experiments was cloned into a pcDNA3.1 vector and comprised a C-terminally linked V5H6 tag.
(§1) The promoters that facilitate transcription of the indicated gene products that were tested using the protocols described herein are listed in the first row of the table. The nuclear hormone receptors and, where applicable, ligands that were assayed for their transcriptional effects on the promoters are listed in the first column of the table. The data represent the luciferase activity of each sample normalized to both the lacZ activity of that sample and to a control, e.g., no NHR or ligand, as customary in the art. As described previously, these normalizations allow the transcriptional activity of each reporter cell to be compared to other samples.
The control data of each table are shown in their last rows.

mCAR promoter = test: NHR-promoter luciferase screen, mCAR promoter; assay type: cell-based, mouse; details: for luciferase activity normalized to lacZ activity and to a control, mCAR: mCAR promoter-luciferase, CV-1 cells, NHR +/- ligand, control = 1.00; for Luc. act., normalized to lacZ / Normalized Luc. act., normalized to control: mCAR promoter, HR/ligand component
Method: (§2) The use, feasibility, and reproducibility of the functional NHR-promoter screen in a 48-well format have been tested validated. Briefly, there were co-expressed 50 ng of each NHR/NHR homodimer or NHR/RXR heterodimer with 100 ng promoter/luciferase construct and 50 ng of LacZ (as a control for transfection efficiency) in CV-1 cells using Fugene HD (Roche) as a transfection reagent (alternatively or additionally, a CMV-YFP construct can be used as a transfection control). Each of the nuclear hormone receptors that were used in these experiments was cloned into a pcDNA3.1 vector and comprised a C-terminally linked V5H6 tag. Twenty-four hours after transfection, appropriate ligands were added, where applicable, (see Table 5 for various ligands and concentrations and after 48 hrs, samples were assayed for luciferase and LacZ activity. To measure for luciferase activity 15 ul of sample was added to 30 ul of luciferase buffer (20 mM tricine, 1.07 mM MgCarbonate, 2.67 mM MgSulfate, 0.1 mM Naz-EDTA, 5 mM DTT, 5 mM ATP, 0.15 mg/ml CoA, 0.5 mM Luciferin), mixed briefly, and run in a Perkin Elmer Victor 5 luminometer. Thus, the functional NHR-promoter screen was used to observe the transcriptional activity of 29 promoters from various physiological pathways including inflammation, lipid and sugar metabolism, cholesterol transport, xenobiotic metabolism, and circadian rhythm.
as §1
(§3) Tables 7-40 show the transcriptional effects of the hormone receptors, and, where applicable, ligands (orphan receptors are screened without ligand), on each individual promoter. […] The control data of each table are shown in their last rows.

mABCA1 promoter = test: NHR-promoter luciferase screen, mABCA1 promoter; assay type: cell-based, mouse; details: for Luc. act., normalized to lacZ / Normalized Luc. act., normalized to control: ABCA1 promoter, hormone receptor with or without its ligand; for Normalized Luc. act., normalized to control: relative to control; for mABCA1 promoter reporter activity: transcription factor +/- ligand, control = 1.00
Method: as §2, §1, §3

hG6PD promoter = test: NHR-promoter luciferase screen, hG6PD promoter; assay type: cell-based, human; details: for Luc. act., normalized to lacZ / Normalized Luc. act., normalized to control: G6PD promoter reporter, co-transfected HR, without or with its ligand; for Normalized Luc. act., normalized to control: relative to control; for luciferase activity normalized to lacZ activity and to a control, hG6PD: hG6PD promoter-luciferase, CV-1 cells, NHR +/- ligand, control = 1.00
Method: as §2, §1, §3

Bmal1 promoter = test: NHR-promoter luciferase screen, Bmal1 promoter; assay type: cell-based, mouse; details: for Luc. act., normalized to lacZ / Normalized Luc. act., normalized to control: Bmal1 promoter, HR component without or with ligand; for mBmal1 promoter reporter activity: transcription factor +/- ligand, control = 1.00; for regulation of the Bmal1 promoter: FIG. 2c, in words
Method: as §2, §1, §3

Molecule	Luc. act., normalized to lacZ (RevErba promoter; RVRa promoter)	Normalized Luc. act., normalized to control (RevErba promoter; RVRa promoter)	negative reciprocal of normalized Luc. act. (fold repression; Table 33) (RevErba promoter; RVRa promoter, given only where activity is below control)	normalized Luc. act. on a logarithmic scale (column without head, Table 33) (RevErba promoter; RVRa promoter)	mRevErba promoter reporter activity (RevErba promoter)	luciferase activity normalized to lacZ activity and to a control, mCAR (mCAR promoter)	Luc. act., normalized to lacZ (mCAR promoter)	Normalized Luc. act., normalized to control (mCAR promoter)	Luc. act., normalized to lacZ (mABCA1 promoter)	Normalized Luc. act., normalized to control (mABCA1 promoter)	mABCA1 promoter reporter activity (mABCA1 promoter)	Luc. act., normalized to lacZ (hG6PD promoter)	Normalized Luc. act., normalized to control (hG6PD promoter)	luciferase activity normalized to lacZ activity and to a control, hG6PD (hG6PD promoter)	Luc. act., normalized to lacZ (Bmal1 promoter)	Normalized Luc. act., normalized to control (Bmal1 promoter)	mBmal1 promoter reporter activity (Bmal1 promoter)	regulation of the Bmal1 promoter (Bmal1 promoter)	regulation of the Constitutive Androstane Receptor (CAR) promoter (mCAR promoter; FIG. 2a, in words)
TLX: Tailless (homolog of drosophila) (NR2E1), cDNA driver	13.5	0.5	−2.079	−0.32	0.48	0.39	15.0	0.4	21.8	3.9	3.88	107.9	2.9	2.89	12.2	0.8	0.78		
B1	86.91	3.1		0.49	3.11	0.55	20.9	0.5	33.0	5.9	5.87	74.0	2.0	1.98	115.6	7.4	7.40	specific activation	
B2	30.15	1.1		0.03	1.08	16.83	641.2	16.8	10.7	1.9	1.90	34.8	0.9	0.93	10.1	0.6	0.65		Specific and strong activation
B3	67.79	2.4		0.38	2.42	1.13	43.1	1.1	29.4	5.2	5.23	81.5	2.2	2.18	58.9	3.8	3.77	specific activation	
B4	30.9	1.1		0.04	1.10	0.92	34.9	0.9	46.3	8.3	8.25	46.8	1.3	1.25	17.4	1.1	1.11		
